These results are taken from article PMC3469465, “Muscle-Specific Splicing Factors ASD-2 and SUP-12 Cooperatively Switch Alternative Pre-mRNA Processing Patterns of the ADF/Cofilin Gene in Caenorhabditis elegans”.

Series [1] deals with T1, FLAG-SUP-12 (Caenorhabditis elegans, UniProt O45189 1-248).
T1 sequence: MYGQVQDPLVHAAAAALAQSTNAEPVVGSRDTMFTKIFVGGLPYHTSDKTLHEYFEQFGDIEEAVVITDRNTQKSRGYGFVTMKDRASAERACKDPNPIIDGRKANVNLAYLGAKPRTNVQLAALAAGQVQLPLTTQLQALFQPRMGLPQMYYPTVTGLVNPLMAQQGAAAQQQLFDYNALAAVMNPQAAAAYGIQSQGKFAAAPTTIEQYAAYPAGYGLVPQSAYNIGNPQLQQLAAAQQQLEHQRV
The series can be described thus: EMSA; 20 mM HEPES-KOH pH 7.9, 150 mM KCl, 5% glycerol (EMSA only), 1% Triton X-100, 1 mM DTT, 0.1 mM PMSF, 100 ng/ul E. coli tRNA, 50 ng/ul BSA, 30 min, 20 C. The note with it: protein: recombinant; tags: FLAG; label: 32P (alpha-32P UTP, internal).

Series [2] concerns the target T1, FLAG-SUP-12. The series can be described thus: EMSA; similar extent to WT; 20 mM HEPES-KOH pH 7.9, 150 mM KCl, 5% glycerol (EMSA only), 1% Triton X-100, 1 mM DTT, 0.1 mM PMSF, 100 ng/ul E. coli tRNA, 50 ng/ul BSA, 30 min, 20 C. The note with it: protein: recombinant; tags: FLAG; label: 32P (alpha-32P UTP, internal). Background: Mobility shift assays separate free from complexed probe on a gel.

As to GGGAGACUAACCUAACCUAACCUAUGUGUGCCUGUUUUCUAG (ssRNA) [unc-60 intron 1A WT EMSA probe], in the series with FLAG-SUP-12 [1], the binding result was “binds”. Turning to GGGAGACAAACCAAACCAAACCUAUGUGUGCCUGUUUUCUAG (ssRNA) [unc-60 intron 1A M1 EMSA probe], in the series with FLAG-SUP-12 [2], the binding result is on record as “binds”.
